The target of data set [1] is endogenous 14-3-3ε (UniProt P62258).
Data set [2] concerns the target T1, endogenous RIG-I (human, UniProt O95786 1-925).
T1 construct: also called retinoic acid-inducible gene-I
T1 sequence: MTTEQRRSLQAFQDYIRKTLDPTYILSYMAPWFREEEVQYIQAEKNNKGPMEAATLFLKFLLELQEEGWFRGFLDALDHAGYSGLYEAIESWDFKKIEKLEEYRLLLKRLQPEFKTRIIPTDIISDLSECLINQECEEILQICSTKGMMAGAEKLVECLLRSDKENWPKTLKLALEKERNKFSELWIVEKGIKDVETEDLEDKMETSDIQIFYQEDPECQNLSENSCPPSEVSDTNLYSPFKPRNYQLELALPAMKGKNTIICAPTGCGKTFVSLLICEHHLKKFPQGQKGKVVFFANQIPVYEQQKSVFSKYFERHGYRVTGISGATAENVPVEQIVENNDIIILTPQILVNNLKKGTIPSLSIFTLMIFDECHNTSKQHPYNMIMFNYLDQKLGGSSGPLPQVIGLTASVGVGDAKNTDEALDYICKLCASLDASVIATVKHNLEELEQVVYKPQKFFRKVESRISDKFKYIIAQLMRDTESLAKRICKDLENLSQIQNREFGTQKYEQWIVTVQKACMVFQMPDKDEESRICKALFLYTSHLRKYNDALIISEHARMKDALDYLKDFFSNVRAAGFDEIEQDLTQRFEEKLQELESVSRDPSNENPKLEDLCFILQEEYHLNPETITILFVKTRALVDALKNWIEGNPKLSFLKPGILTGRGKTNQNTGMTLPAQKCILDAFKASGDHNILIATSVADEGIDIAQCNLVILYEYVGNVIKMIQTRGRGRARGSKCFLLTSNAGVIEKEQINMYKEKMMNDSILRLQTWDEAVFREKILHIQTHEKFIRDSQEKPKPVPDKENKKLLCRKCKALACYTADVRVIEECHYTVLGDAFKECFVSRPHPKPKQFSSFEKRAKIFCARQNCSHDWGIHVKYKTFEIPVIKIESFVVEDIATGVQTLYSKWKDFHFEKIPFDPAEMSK
Put plainly: Co-IP with anti-RIG-I from SeV-infected cells, immunoblot with anti-14-3-3ε.

Data set [3] concerns the target T2, FLAG-NS5-MTase (NS5 methyltransferase domain, aa 1-319) (dengue virus serotype 2, strain NGC, UniProt P14340 2492-2810).
T2 construct: domain: NS5 methyltransferase (aa 1-319); also called pEF-BOS-FLAG-NS5-MTase; not shown: FLAG tag
In words: FLAG affinity purification from HEK293T cells and mass spectrometry.

The target of data set [4] is T3, GST-NS3 of HCV (strain Con1) (Hepatitis C virus, strain Con1, UniProt Q9WMX2 1027-1657).
T3 construct: domain: NS3; also called HCV NS3; NS3 of Hepatitis C virus
Put plainly: GST pull-down in 293T cells, immunoblot with anti-14-3-3ε.

For data set [5], the target named is T4, RIG-I-FLAG (UniProt O95786 1-925).
T4 construct: also called purified RIG-I-FLAG
T4 sequence: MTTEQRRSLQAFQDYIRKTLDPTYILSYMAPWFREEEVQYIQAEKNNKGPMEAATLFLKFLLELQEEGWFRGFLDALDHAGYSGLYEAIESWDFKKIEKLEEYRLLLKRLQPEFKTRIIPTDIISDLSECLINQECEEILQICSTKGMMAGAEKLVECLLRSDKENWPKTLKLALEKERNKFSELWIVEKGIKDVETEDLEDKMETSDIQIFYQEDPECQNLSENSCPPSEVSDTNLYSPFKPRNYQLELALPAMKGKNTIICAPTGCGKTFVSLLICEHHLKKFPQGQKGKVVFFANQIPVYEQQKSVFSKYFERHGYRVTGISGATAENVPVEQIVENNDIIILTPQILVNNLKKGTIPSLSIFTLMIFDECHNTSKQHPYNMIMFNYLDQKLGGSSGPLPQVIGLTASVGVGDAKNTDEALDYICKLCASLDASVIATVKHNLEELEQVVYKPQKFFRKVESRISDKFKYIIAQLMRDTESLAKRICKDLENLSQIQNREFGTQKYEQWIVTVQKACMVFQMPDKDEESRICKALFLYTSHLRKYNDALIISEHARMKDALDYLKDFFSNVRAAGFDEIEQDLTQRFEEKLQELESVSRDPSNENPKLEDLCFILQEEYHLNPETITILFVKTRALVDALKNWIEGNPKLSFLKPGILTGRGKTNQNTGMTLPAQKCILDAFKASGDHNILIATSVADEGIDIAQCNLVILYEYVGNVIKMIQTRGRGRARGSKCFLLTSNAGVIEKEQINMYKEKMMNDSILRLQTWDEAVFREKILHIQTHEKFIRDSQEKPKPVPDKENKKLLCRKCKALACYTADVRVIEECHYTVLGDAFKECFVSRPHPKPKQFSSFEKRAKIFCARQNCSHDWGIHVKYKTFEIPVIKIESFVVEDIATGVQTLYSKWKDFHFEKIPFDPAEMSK
In words: in vitro binding assay on anti-FLAG beads, immunoblot.

T3 sequence (Q9WMX2 1027-1657): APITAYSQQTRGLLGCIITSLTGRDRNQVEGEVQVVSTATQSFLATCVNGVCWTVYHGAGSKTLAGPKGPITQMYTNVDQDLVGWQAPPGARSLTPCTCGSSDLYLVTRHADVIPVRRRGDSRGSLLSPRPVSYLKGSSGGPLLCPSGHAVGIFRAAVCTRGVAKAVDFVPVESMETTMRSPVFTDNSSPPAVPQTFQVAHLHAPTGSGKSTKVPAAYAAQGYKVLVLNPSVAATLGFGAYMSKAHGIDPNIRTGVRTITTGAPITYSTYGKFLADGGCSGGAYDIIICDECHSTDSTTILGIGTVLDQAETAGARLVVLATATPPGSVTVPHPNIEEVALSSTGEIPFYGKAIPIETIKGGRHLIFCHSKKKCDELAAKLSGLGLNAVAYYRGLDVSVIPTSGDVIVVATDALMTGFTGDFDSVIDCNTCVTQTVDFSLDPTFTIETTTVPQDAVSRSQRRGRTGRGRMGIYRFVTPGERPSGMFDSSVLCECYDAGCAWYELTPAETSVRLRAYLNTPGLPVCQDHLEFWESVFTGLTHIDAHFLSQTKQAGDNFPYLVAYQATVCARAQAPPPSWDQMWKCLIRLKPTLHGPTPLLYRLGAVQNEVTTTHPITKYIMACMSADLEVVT

Regarding NS3 of DV2 NGC in infected Huh7 cells, the “translocation of RIG-I to the MAVS-containing mitochondrial fraction (fractionation, immunoblot)” value in data set [1] is reported as “RIG-I failed to translocate to the MAVS-containing mitochondrial fraction during DV infection”.

B1: endogenous 14-3-3ε (other)
chain: MDDREDLVYQAKLAEQAERYDEMVESMKKVAGMDVELTVEERNLLSVAYKNVIGARRASWRIISSIEQKEENKGGEDKLKMIREYRQMVETELKLICCDILDVLDKHLIPAANTGESKVFYYKMKGDYHRYLAEFATGNDRKEAAENSLVAYKAASDIAMTELPPTHPIRLGLALNFSVFYYEILNSPDRACRLAKAAFDDAIAELDTLSEESYKDSTLIMQLLRDNLTLWTSDMQGDGEEQNKEALQDVEDENQ
B1: the binding result in data set [2] is “binds”; in data set [3], “no binding”; in data set [4] it was “no binding”.

B2: bacterially-purified recombinant human 14-3-3ε protein (NP_006752.1) (other)
chain: MDDREDLVYQAKLAEQAERYDEMVESMKKVAGMDVELTVEERNLLSVAYKNVIGARRASWRIISSIEQKEENKGGEDKLKMIREYRQMVETELKLICCDILDVLDKHLIPAANTGESKVFYYKMKGDYHRYLAEFATGNDRKEAAENSLVAYKAASDIAMTELPPTHPIRLGLALNFSVFYYEILNSPDRACRLAKAAFDDAIAELDTLSEESYKDSTLIMQLLRDNLTLWTSDMQGDGEEQNKEALQDVEDENQ
notes: also called recombinant (r) 14-3-3ε; r14-3-3ε
As for B2, in data set [5], the binding result was “binds”.
